Here are results for one substance from patent US20100316632A1.

The target of assay [1] is CD40 receptor (human), on CD14+ monocytes (human) (UniProt P25942).
Assay [2] has the same target. This is another data set of the same source.

In assay [1], “clone 64 (agonist anti-human CD40 monoclonal antibody, PanGenetics, The Netherlands)” yielded an IL-1β production by purified CD14+ cells of MDS patients (ELISA) of 18 pg/mL, an IL-6 production by purified CD14+ cells of MDS patients (ELISA) of 1210 pg/mL and an IL-10 production by purified CD14+ cells of MDS patients (ELISA) of 1650 pg/mL. In assay [2], this substance had a TNF-α production by CD14+ monocytes (ELISA of supernatant after 24 h) of 449 pg/mL.
